Common to all, as to assay: affinity purification with mass spectrometry; HA-tagged TgWIP variants pulled down by the HA tag from lysates of DC2.4 cells infected 4 h at MOI 7; host partners by mass spectrometry; values are negative fold changes in peptide counts of the mutant immunoprecipitations relative to TgWIP^WT
For experiment [1], the target named is TgWIP^Y150A/Y199A, HA-tagged (Toxoplasma gondii).
Experiment [2] addresses TgWIP^(PRR3 mut), HA-tagged (Toxoplasma gondii).
Experiment [3] has as its target TgWIP^(PRR2 mut), HA-tagged (Toxoplasma gondii).
Experiment [4] concerns the target TgWIP^(WIRS mut), HA-tagged (Toxoplasma gondii).

“And” between values parts separate entries of the source, which are not always exact repeats. Equal entries are not always repeated.

On to “Wasf2 (Wave2), endogenous in murine DC2.4 cells (from UniProt Q8BH43 1-497) (natural protein)”, for which the negative fold change in peptide counts relative to TgWIP^WT turned out to be 2 fold in experiment [1], 15 fold in experiment [2], 3 fold in experiment [3] and 3 fold in experiment [4].
For “Lrrk1, endogenous in murine DC2.4 cells (from UniProt Q3UHC2 1-2014) (natural protein)”, the negative fold change in peptide counts relative to TgWIP^WT in experiment [1] came out at 1 fold; in experiment [2], 3 fold; in experiment [3], 3 fold; in experiment [4], 1 fold.
Take “Cyfip2, endogenous in murine DC2.4 cells (from UniProt Q5SQX6 1-1253) (natural protein)”: the negative fold change in peptide counts relative to TgWIP^WT in experiment [1] was 2 fold; in experiment [2], 5 fold; in experiment [3], 3 fold; in experiment [4], 2 fold.
Consider “Grb2, endogenous in murine DC2.4 cells (from UniProt Q60631 1-217) (natural protein)”, for which the negative fold change in peptide counts relative to TgWIP^WT was 4 fold in experiment [1], 3 fold in experiment [2], 6 fold in experiment [3] and 2 fold in experiment [4].
On to “Shp1 (Ptpn6), endogenous in murine DC2.4 cells (from UniProt P29351 1-595) (natural protein)”, for which the negative fold change in peptide counts relative to TgWIP^WT in experiment [1] worked out at 32 fold; in experiment [2], 3 fold; in experiment [3], 3 fold; in experiment [4] it was 2 fold.

B1: Arhgef7, endogenous in murine DC2.4 cells (natural protein)
chain: MNSAEQTVTWLITLGVLESPKKTISDPEVFLQASLKDGVVLCRLLERLLPGTIEKVYPEPRNESECLSNIREFLRACGASLRLETFDANDLYQGQNFNKVLSSLVTLNKVTADIGLGSDSVCARPSSHRIKSFDSLGSQSSHSRTSKLLQSQYRSLDMTDNTNSQLVVRAKFNFQQTNEDELSFSKGDVIHVTRVEEGGWWEGTHNGRTGWFPSNYVREIKPSEKPVSPKSGTLKSPPKGFDTTAINKSYYNVVLQNILETEHEYSKELQSVLSTYLRPLQTSDKLSSANTSYLMGNLEEISSFQQVLVQSLEECTKSPEAQQRVGGCFLSLMPQMRTLYLAYCANHPSAVSVLTEHSEDLGEFMETKGASSPGILVLTTGLSKPFMRLDKYPTLLKELERHMEDYHPDRQDIQKSMTAFKNLSAQCQEVRKRKELELQILTEPIRSWEGDDIKTLGSVTYMSQVTIQCAGSEEKNERYLLLFPNLLLMLSASPRMSGFIYQGKLPTTGMTITKLEDSENHRNAFEISGSMIERILVSCTSQQDLHEWVEHLQKQTKVTSVSNPTIKPHSVPSHTLPSHPLTPSSKHADSKPVALTPAYHTLPHPSHHGTPHTTISWGPLEPPKTPKPWSLSCLRPAPPLRPSAALCYKEDLSKSPKTMKKLLPKRKPERKPSDEEFAVRKSTAALEEDAQILKVIEAYCTSAKTRQTLNSTWQGTDLMHNHVLADDDQSSLDSLGRRSSLSRLEPSDLSEDSEYDSIWTAHSYRMGSASRSRKESAPQVLLPEEEKIIVEETKSNGQTVIEEKSLVDTVYALKDEVQELRQDNKKMKKSLEEEQRARKDLEKLVRKVLKNMNDPAWDETNL
B1: the negative fold change in peptide counts relative to TgWIP^WT in experiment [1] is 3 fold and 2 fold; in experiment [2], 8 fold; in experiment [3], 4 fold; in experiment [4], 2 fold.

B2: Git1, endogenous in murine DC2.4 cells (natural protein)
chain: MSRKGPRAEVCADCSAPDPGWASISRGVLVCDECCSVHRSLGRHISIVKHLRHSAWPPTLLQMVHTLASNGANSIWEHSLLDPAQVQSGRRKANPQDKVHPIKSEFIRAKYQMLAFVHKLPCRDDDGVTAKDLSKQLHSSVRTGNLETCLRLLSLGAQANFFHPEKGTTPLHVAAKAGQTLQAELLVVYGADPGSPDVNGRTPIDYARQAGHHELAERLVECQYELTDRLAFYLCGRKPDHKNGHYIIPQMADRSRQKCMSQSLDLSELAKAAKKKLQALSNRLFEELAMDVYDEVDRRENDAVWLATQNHSTLVTERSAVPFLPVNPEYSATRNQGRQKLARFNAREFATLIIDILSEAKRRQQGKSLSSPTDNLELSARSQSELDDQHDYDSVASDEDTDQEPLPSAGATRNNRARSMDSSDLSDGAVTLQEYLELKKALATSEAKVQQLMKVNSSLSDELRRLQREIHKLQAENLQLRQPPGPVPPPSLPSERAEHTLMGPGGSTHRRDRQAFSMYEPGSALKPFGGTPGDELATRLQPFHSTELEDDAIYSVHVPAGLYRIRKGVSASSVPFTPSSPLLSCSQEGSRHASKLSRHGSGADSDYENTQSGDPLLGLEGKRFLELSKEDELHPELESLDGDLDPGLPSTEDVILKTEQVTKNIQELLRAAQEFKHDSFVPCSEKIHLAVTEMASLFPKRPALEPVRSSLRLLNASAYRLQSECRKTVPPEPGAPVDFQLLTQQVIQCAYDIAKAAKQLVTITTREKKQ
In the case of B2, the negative fold change in peptide counts relative to TgWIP^WT was 2 fold in experiment [1], 11 fold in experiment [2], 4 fold in experiment [3] and 2 fold in experiment [4].

B3: Arhgef6, endogenous in murine DC2.4 cells (natural protein)
chain: MNPEERLVTWLISLGVLESPKKTVCDPEEFLKSSLKNGVVLCKLINRLLPGSVEKYCLEPQTEADCIDNINDFLKGCATLQVEVFEPDDLYSGANFSKVLNTLLAVNKATEDQLSERPCGRSSSLSAATSSQTNPQVAVPSTAPEQHSEEKAEMTENGSHQLIVKARFNFKQTNEDELSVCKGDIIYVTRVEEGGWWEGTLNGRTGWFPSNYVREIKPSERPLSPKAIKGFDTAPLTKNYYTVVLQNILDTEKEYAKELQSLLVTYLRPLQSNNNLSTVEFTCLLGNFEEVCTFQQTLCQALEECSKFPENQHKVGGCLLNLMPHFKSMYLAYCANHPSAVNVLTQHSDDLERFMENQGASSPGILILTTSLSKPFMRLEKYVTLLQELERHMEDTHPDHQDILKAIIAFKTLMGQCQDLRKRKQLELQILSEPIQAWEGDDIKTLGNVIFMSQVVMQHGACEEKEERYFLLFSSVLIMLSASPRMSGFMYQGKIPIAGMVVNRLDEIEGSDCMFEITGSTVERIVVHCNNNQDFQEWMEQLNRLTKGPTSCGSLSKTSSSSCSTHSSFSSTGQPRGPLEPPQIIKPWSLSCLRPAPPLRPSAALGYKERMSYILKESSKSPKTMKKFLHKRKTERKASEEEYVIRKSTAALEEDAQILKVIEAYCTSASFQQGTRKDSVPQVLLPEEEKLIIEETRSNGQTIIEEKSLVDTVYALKDEVKELKQENKKMKQCLEEELKSRKDLEKLVRKLLKQTDECIRSESSSKTSILQ
As to B3, the negative fold change in peptide counts relative to TgWIP^WT stood at 2 fold in experiment [1], 7 fold in experiment [2], 3 fold in experiment [3] and 2 fold in experiment [4].

B4: Nostrin, endogenous in murine DC2.4 cells (natural protein)
chain: MRDPLTDCSYNKVYKSLKEFAQHGDNFCKQITSVLQQRANLEISYAKGLQKLAVRLSKALQSTKKNCLSTAWAWASESMKSAADLHQKLGKAIELEAIKPTHQVLSMQEKKRKSLDNEVEKTANLVINNWNQQIKAKKKLMMSTKKHEALFHLVESSKQSLTQKEKQKLLNKLKKSTEKLEKEDESYYQKNMAGYSTRLKWESTLENCYKSMLELEKERIQLLCNNLNQYSQHISLFGQTLTTCHTQIHCAISKVDVEKDIQALMEETAILSIENKSELLLADYFEEDPKNPMDKERRKSLLKPKLGRLQRDIEKASRDKEGLERKLKALASSSSFSDAKSQKDMETLMDENSLKLDLLQANSYKLSSVLADLEQRPKPCHPCSTCIFKWKEKEHSHTYVKISRPLLTKRLEKAESKAPAGGQNNPSSSPSGSTVSQASKHLCKALYTFQARQDDELNLEKGDIVTVHEKKEEGWWFGSLKGKRGHFPAAYVEELPPKAGNTATQA
Turning to B4, the negative fold change in peptide counts relative to TgWIP^WT was 1 fold in experiment [1], 5 fold in experiment [2], 6 fold in experiment [3] and 3 fold in experiment [4].
